Laboratory results reported in the supplement of paper PMC10724198.
± gives the standard deviation of the averaged measurements.

System: Saccharomyces cerevisiae
Test: protein stability index of tFT-peptide fusion (C-terminal peptide) (PSI (0-1 scale)); higher = more stable (slower turnover)
Conditions: genetic background: wild type; temperature: 30 C
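Also: PSI is a weighted mean of sequencing reads over stability bins, variants kept only with over 10 reads, mCherry proximal and sfGFP distal, peptide attached via GGGS linker.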

Sequence	protein stability index
VPTLCDQVFLFA	0.627 ± 0.0086
VPVGSWVGIGGK	0.692 ± 0.043
VPVSNLCERTAG	0.648 ± 0.011
VQCRIREELWGG	0.6919 ± 0.0047
VQGGRNGEGGRG	0.651 ± 0.081
VQIALTLNSPSL	0.605 ± 0.058
VQLSISCEPPSN	0.7391 ± 0.007
VQMKVKKRLNEW	0.6744 ± 0.0046
VQYITSGASRWG	0.6309 ± 0.00084
VRAVGSIILPPG	0.6558 ± 0.00093
VRCAAIKLIGRI	0.675 ± 0.051
VRCKGLGLAVCA	0.541 ± 0.062
VRCWGRGSGVGD	0.666 ± 0.036
VREILKDGIFDP	0.717 ± 0.043
VRERGAGAVAGS	0.715 ± 0.044
VRERVRRWVGDG	0.5752 ± 0.0053
VRGGGRARRRGS	0.7347 ± 0.0044
VRGKSARRSSRR	0.665 ± 0.029
VRISGLSALPHF	0.70793 ± 9.5e-05
VRLMARFESFLW	0.69 ± 0.023
VRPLPAPVQPHP	0.741 ± 0.019
VRPYPGDDVSWR	0.693 ± 0.061
VRRGVGAVVFGG	0.655 ± 0.08
VRRRLRLFLMWG	0.588 ± 0.0052
VRRVHAMVLLGG	0.65 ± 0.014

Sequence	protein stability index
VRTLVGQVWETV	0.721 ± 0.031
VRVALISDRGKQ	0.738 ± 0.025
VSADGAGCAVRG	0.709 ± 0.052
VSAYLKNSGYRE	0.6955 ± 0.0061
VSAYWFLLFGSV	0.662 ± 0.13
VSCHSPPVPHDP	0.702 ± 0.011
VSCVRGFFLFPC	0.699 ± 0.022
VSEEFAGSGTKS	0.67 ± 0.064
VSFPHSRLSLTI	0.747 ± 0.02
VSFSSLLRFCRG	0.671 ± 0.0091
VSGDLRRWRNSE	0.673 ± 0.043
VSGEGRGRTTPD	0.665 ± 0.013
VSGFVAALRIFL	0.657 ± 0.025
VSGGGEWRDAYG	0.677 ± 0.04
VSGMRRRFGNRL	0.756 ± 0.11
VSHVRVNESAAN	0.677 ± 0.0078
VSKVGDMNSGSK	0.651 ± 0.013
VSLGALFEFRAA	0.745 ± 0.015
VSLSSLPRRFSP	0.75 ± 0.04
VSNIVGRSLSCR	0.688 ± 0.014
VSNVSDSGHPYL	0.6777 ± 0.0021
VSRHRRLAGMIW	0.735 ± 0.018
VSRPPPRNPTPP	0.728 ± 0.078
VSSVSLRVRVLF	0.564 ± 0.08
VSVFRFALGLQV	0.563 ± 0.0058

Sequence	protein stability index
VSVGVPGWYGMI	0.6336 ± 0.0049
VSVWLGSARWVG	0.628 ± 0.0086
VSWRGSFQGIYG	0.685 ± 0.043
VSYLAQSFLPNL	0.69928 ± 9.6e-05
VSYRLDMHFLYY	0.6062 ± 0.0046
VTISLGGGGGMQ	0.684 ± 0.12
VTISLGVGGGMQ	0.725 ± 0.048
VTRGGKLRRGRV	0.638 ± 0.089
VTRRIPPRGGPR	0.72 ± 0.074
VVCFGNFGGVRV	0.778 ± 0.049
VVGAALRDGPRE	0.71 ± 0.012
VVGAIRWGGGRR	0.705 ± 0.014
VVGAVSASLAGV	0.662 ± 0.056
VVGGGDWRWGVW	0.7709 ± 0.0046
VVGNGGWVEGEV	0.621 ± 0.13
VVGSAGGGGFVL	0.6717 ± 0.0065
VVGSVPVSAFWE	0.746 ± 0.075
VVGSWGRGGCGG	0.639 ± 0.0017
VVGVCLDIVCSP	0.519 ± 0.013
VVGWSSGVVEVA	0.688 ± 0.035
VVHECIGVYGTV	0.634 ± 0.017
VVLFCPFISSED	0.726 ± 0.012
VVLGQGRGVGAM	0.669 ± 0.012
VVPSLLVLPFFC	0.51 ± 0.01
VVRLEGGSGAVW	0.703 ± 0.0085

Sequence	protein stability index
VVRLGGVSWAGG	0.649 ± 0.016
VVRLGLVSGCGG	0.581 ± 0.013
VVRMFRLGNGNF	0.7 ± 0.0083
VVRQADVLLGLV	0.662 ± 0.019
VVSLPITGTVTL	0.722 ± 0.029
VVSSFVCLLRRG	0.654 ± 0.055
VVVGGVGGFFGC	0.754 ± 0.015
VVVGQGPLRGGA	0.714 ± 0.021
VVVIGVWGGGVG	0.612 ± 0.019
VVVRVAEGGGRW	0.666 ± 0.047
VVWCSWGFLFSA	0.625 ± 0.042
VWCVWGVGGLWA	0.648 ± 0.025
VWGGGGVTVWLV	0.6149 ± 0.0054
VWGGGSWGGCGG	0.744 ± 0.082
VWGWGSWGGCGG	0.705 ± 0.066
VWHWGRSLYLAA	0.525 ± 0.021
VWRGGGVRLGRL	0.75 ± 0.046
VWSWGEGGGAVV	0.7 ± 0.035
VWVCGLGGGVLG	0.777 ± 0.021
VYGRRNVRLNIV	0.582 ± 0.068
VYGVVVWLFGFL	0.678 ± 0.0095
VYHCRLSQHRTL	0.717 ± 0.034
VYSSVPGRIAID	0.708 ± 0.008
VYYDERLGDGHS	0.866 ± 0.021
WAGGGVWRVGGR	0.715 ± 0.042

Sequence	protein stability index
WAKRERRNEGRR	0.71 ± 0.011
WCGGGGRGGVAG	0.72 ± 0.047
WCIPEAPVATSR	0.684 ± 0.0083
WCSRRIDWSSAP	0.7318 ± 0.002
WDGWWGGAGVGE	0.695 ± 0.077
WDVGSHRGGFWL	0.713 ± 0.02
WERGGGGRVCGW	0.754 ± 0.02
WFCSVICGVFSV	0.5678 ± 0.00093
WFKALCPIFCKD	0.62 ± 0.015
WFLRSFGIQRSG	0.511 ± 0.0047
WFRLRFASGRRS	0.682 ± 0.054
WFVCVARCPFPF	0.623 ± 0.035
WFVTVISSRFGS	0.6444 ± 0.0011
WGARSRFRWGRS	0.7284 ± 0.0052
WGDGSGRVWEIS	0.68 ± 0.03
WGFGRCELMLGS	0.708 ± 0.035
WGGGGRLAGLLG	0.687 ± 0.037
WGGGRGLRGRWG	0.694 ± 0.057
WGGRAVGVLGVG	0.629 ± 0.048
WGGRSWGLRRGC	0.664 ± 0.028
WGGTAGWLHIGV	0.747 ± 0.076
WGGVRSGGACCA	0.72 ± 0.075
WGKRGGLGALSR	0.653 ± 0.06
WGLLCPLRSDNV	0.705 ± 0.017
WGRGETLCSSVP	0.72 ± 0.011

Sequence	protein stability index
WGRGGSRGSWGA	0.716 ± 0.014
WGRNGRRMEVTK	0.687 ± 0.017
WGSVGVVGLFSG	0.69 ± 0.057
WGTDVGAGCVAR	0.741 ± 0.027
WGVCWRVWGFGC	0.677 ± 0.074
WGWGGGWSGACL	0.679 ± 0.0071
WGWGRWEMVGRT	0.695 ± 0.011
WGYGRGRVWEIS	0.6137 ± 0.0011
WHLQYTLIPYEA	0.635 ± 0.054
WIGRSVGVELCR	0.807 ± 0.13
WIKKGKNRLRKT	0.586 ± 0.05
WISAPTDRNITN	0.713 ± 0.0095
WISLRRIKSNRE	0.802 ± 0.014
WKYRGVGGVGMG	0.745 ± 0.097
WLFVGGWGVFGG	0.674 ± 0.068
WLVRNVVGGGVC	0.722 ± 0.061
WLYGEFGALVVD	0.685 ± 0.033
WNWSIITTENKP	0.7 ± 0.064
WPGICVWAGSPG	0.717 ± 0.06
WPVRNRIQPPPR	0.705 ± 0.051
WQGSASCSVVLV	0.55 ± 0.043
